Laboratory results: paper PMC4631838, “Molecular architecture of the yeast Mediator complex” (eLife, 2015)

T1: Med17 (Srb4), Mediator Head module subunit (S. cerevisiae, UniProt P32569 1-687)
T1 construct: Med17 (Srb4), S. cerevisiae, endogenous, residues 1-687 spoken of; cross-linking was done after cleavage; also called Med17p; source: endogenous, S. cerevisiae CB010 double-tagged strain; within the purified native holoenzyme; not shown: TAP, N-terminal, cleaved
T1 sequence (looked up): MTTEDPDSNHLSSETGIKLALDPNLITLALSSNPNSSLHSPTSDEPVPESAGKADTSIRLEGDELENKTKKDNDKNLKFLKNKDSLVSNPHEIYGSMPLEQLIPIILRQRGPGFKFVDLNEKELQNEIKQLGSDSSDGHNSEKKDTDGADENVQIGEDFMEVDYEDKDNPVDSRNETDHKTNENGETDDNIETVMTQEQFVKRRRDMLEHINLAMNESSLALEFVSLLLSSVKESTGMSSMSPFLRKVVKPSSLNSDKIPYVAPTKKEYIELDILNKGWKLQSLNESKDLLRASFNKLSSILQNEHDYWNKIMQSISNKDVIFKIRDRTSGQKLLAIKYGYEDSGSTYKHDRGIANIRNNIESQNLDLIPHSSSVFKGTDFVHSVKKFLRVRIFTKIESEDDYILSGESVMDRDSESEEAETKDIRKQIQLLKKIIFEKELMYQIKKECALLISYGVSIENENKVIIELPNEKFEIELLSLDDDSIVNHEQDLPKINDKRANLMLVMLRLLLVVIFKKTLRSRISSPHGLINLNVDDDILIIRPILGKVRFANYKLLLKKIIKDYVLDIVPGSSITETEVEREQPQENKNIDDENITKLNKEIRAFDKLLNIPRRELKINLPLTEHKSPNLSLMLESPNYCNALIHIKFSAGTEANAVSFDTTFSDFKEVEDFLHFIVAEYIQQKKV

T2: Med1, Mediator Middle module subunit (S. cerevisiae, UniProt Q12321 1-566)
T2 construct: Med1, S. cerevisiae, endogenous; source: endogenous, S. cerevisiae CB010 double-tagged strain; within the purified native holoenzyme
T2 sequence (looked up): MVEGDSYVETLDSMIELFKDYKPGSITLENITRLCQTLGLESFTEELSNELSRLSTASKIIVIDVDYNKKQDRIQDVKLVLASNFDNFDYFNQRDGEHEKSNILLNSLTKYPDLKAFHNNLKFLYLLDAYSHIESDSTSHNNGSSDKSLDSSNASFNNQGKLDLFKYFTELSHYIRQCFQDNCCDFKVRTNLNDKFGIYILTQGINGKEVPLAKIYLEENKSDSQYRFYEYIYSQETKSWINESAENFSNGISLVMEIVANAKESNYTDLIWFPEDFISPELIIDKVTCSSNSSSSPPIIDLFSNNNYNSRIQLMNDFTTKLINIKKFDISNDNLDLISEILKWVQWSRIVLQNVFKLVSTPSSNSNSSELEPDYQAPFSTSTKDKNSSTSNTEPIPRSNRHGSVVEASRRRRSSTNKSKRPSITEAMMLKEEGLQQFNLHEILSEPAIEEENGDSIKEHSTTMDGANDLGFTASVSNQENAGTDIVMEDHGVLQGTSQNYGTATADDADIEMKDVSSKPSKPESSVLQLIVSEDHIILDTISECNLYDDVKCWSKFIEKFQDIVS

T3: Med14 (Rgr1), Mediator subunit (S. cerevisiae, UniProt P19263 1-1082)
T3 construct: Med14 (Rgr1), S. cerevisiae, endogenous, residues 1-1082 spoken of; source: endogenous, S. cerevisiae CB010 double-tagged strain; within the purified native holoenzyme
T3 sequence (looked up): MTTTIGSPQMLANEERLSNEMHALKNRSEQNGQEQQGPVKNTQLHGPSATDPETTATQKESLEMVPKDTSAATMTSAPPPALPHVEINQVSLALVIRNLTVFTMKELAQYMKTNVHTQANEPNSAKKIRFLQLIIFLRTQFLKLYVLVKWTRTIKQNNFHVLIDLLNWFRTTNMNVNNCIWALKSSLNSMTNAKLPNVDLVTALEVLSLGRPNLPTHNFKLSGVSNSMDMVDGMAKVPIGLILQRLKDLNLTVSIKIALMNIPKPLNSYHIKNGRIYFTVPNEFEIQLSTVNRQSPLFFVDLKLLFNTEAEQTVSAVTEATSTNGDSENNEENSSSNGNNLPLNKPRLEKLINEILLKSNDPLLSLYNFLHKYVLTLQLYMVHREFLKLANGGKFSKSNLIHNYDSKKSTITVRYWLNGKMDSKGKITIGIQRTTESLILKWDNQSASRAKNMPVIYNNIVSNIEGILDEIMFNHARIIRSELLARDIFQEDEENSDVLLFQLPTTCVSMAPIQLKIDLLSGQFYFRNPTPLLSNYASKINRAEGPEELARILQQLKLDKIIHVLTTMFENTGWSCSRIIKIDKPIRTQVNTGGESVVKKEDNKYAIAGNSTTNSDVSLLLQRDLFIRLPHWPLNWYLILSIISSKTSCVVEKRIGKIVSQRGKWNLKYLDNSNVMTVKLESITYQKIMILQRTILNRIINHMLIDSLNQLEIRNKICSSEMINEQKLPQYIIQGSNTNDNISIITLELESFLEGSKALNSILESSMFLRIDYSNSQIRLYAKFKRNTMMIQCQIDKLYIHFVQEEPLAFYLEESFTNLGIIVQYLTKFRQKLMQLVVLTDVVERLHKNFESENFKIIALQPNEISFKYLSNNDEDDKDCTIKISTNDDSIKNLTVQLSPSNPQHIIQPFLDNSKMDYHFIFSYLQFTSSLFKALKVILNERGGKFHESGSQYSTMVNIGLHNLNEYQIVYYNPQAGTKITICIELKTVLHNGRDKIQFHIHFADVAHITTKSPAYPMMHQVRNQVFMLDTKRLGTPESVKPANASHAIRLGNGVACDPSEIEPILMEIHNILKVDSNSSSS


Columns and labels:
Experiment in all cases: cross-linking; BS3 (unlabeled, or 50:50 with 2H12-labeled BS3) on the purified native holoenzyme; 150 mM NaPO4, 150 mM KOAc, pH 7.5, 5% glycerol, 2 mM DTT; procedure A 2.7 mM reagent 120 min on ice; trypsin digest, LC-MS/MS, Protein Prospector
Settings in all cases: both partners purified
[1] = biological target: T1, Med17 (Srb4), Mediator Head module …
[2] = biological target: T2, Med1, Mediator Middle module subunit
[3] = biological target: T3, Med14 (Rgr1), Mediator subunit

| binding result [1] | binding result [2] | binding result [3] | Binder |
| --- | --- | --- | --- |
| binds |  |  | Med7, Mediator Middle module subunit (natural protein, S. cerevisiae, UniProt Q08278 1-222, looked up, Med7, S. cerevisiae, endogenous; source: endogenous, S. cerevisiae CB010 double-tagged strain; within the purified native holoenzyme) MSNDPGNEVSSLYPPPPPYVKFFTQSNLEKLPKYKEKKAASAKQTAPNNSNGGSEEEITCALDYLIPPPMPKNQQYRAFGSIWQVKDQLPDLESMGLTQLYKKSTENESTNYQYKIQELRKLLKSLLLNYLELIGVLSINPDMYERKVENIRTILVNIHHLLNEYRPHQSRESLIMLLEEQLEYKRGEIREIEQVCKQVHDKLTSIQDTLRTGSQSPPSSSQ |
|  | binds | binds | Med9 (Cse2), Mediator Middle module subunit (natural protein, S. cerevisiae, UniProt P33308 1-149, looked up, Med9 (Cse2), S. cerevisiae, endogenous; source: endogenous, S. cerevisiae CB010 double-tagged strain; within the purified native holoenzyme) MNLQNNVLNQIHQILLPTNPTLDKPNAEATKEEFSSAENRDEKDYLTNQQPKNLSTPSTSSNGEFIPHIFYSLHQIRKDPNNLSNQLETLTGSIRHRLKLCKSLISENEDTKDLLSKSPSEWQDIIHQREQELQIKRDVLDDLYRKLQR |
| binds |  | binds | Med21, Mediator Middle module subunit (natural protein, S. cerevisiae, UniProt P47822 1-140, looked up, Med21 (printed old name Sbr7), S. cerevisiae, endogenous; also called Sbr7; source: endogenous, S. cerevisiae CB010 double-tagged strain; within the purified native holoenzyme) MTDRLTQLQICLDQMTEQFCATLNYIDKNHGFERLTVNEPQMSDKHATVVPPEEFSNTIDELSTDIILKTRQINKLIDSLPGVDVSAEEQLRKIDMLQKKLVEVEDEKIEAIKKKEKLLRHVDSLIEDFVDGIANSKKST |
